{
  "source": "paper PMC3796201",
  "about": "(Nature structural & molecular biology, 2013)",
  "binders": {"B1": {"name": "GST-RAD51 F86E (natural protein, human, UniProt Q06609 1-339, looked up)", "chain": "MAMQMQLEANADTSVEEESFGPQPISRLEQCGINANDVKKLEEAGFHTVEAVAYAPKKELINIKGISEAKADKILAEAAKLVPMGETTATEFHQRRSEIIQITTGSKELDKLLQGGIETGSITEMFGEFRTGKTQICHTLAVTCQLPIDRGGGEGKAMYIDTEGTFRPERLLAVAERYGLSGSDVLDNVAYARAFNTDHQTQLLYQASAMMVESRYALLIVDSATALYRTDYSGRGELSARQMHLARFLRMLLRLADEFGVAVVITNQVVAQVDGAAMFAADPKKPIGGNIIAHASTTRLYLRKGRGETRICKIYDSPCLPEAEAMFAINADGVGDAKD"}},
  "molecular_target": "CRM1 (human, recombinant, His-tagged) (human, UniProt O14980 1-1071)",
  "sequence (O14980 whole entry)": "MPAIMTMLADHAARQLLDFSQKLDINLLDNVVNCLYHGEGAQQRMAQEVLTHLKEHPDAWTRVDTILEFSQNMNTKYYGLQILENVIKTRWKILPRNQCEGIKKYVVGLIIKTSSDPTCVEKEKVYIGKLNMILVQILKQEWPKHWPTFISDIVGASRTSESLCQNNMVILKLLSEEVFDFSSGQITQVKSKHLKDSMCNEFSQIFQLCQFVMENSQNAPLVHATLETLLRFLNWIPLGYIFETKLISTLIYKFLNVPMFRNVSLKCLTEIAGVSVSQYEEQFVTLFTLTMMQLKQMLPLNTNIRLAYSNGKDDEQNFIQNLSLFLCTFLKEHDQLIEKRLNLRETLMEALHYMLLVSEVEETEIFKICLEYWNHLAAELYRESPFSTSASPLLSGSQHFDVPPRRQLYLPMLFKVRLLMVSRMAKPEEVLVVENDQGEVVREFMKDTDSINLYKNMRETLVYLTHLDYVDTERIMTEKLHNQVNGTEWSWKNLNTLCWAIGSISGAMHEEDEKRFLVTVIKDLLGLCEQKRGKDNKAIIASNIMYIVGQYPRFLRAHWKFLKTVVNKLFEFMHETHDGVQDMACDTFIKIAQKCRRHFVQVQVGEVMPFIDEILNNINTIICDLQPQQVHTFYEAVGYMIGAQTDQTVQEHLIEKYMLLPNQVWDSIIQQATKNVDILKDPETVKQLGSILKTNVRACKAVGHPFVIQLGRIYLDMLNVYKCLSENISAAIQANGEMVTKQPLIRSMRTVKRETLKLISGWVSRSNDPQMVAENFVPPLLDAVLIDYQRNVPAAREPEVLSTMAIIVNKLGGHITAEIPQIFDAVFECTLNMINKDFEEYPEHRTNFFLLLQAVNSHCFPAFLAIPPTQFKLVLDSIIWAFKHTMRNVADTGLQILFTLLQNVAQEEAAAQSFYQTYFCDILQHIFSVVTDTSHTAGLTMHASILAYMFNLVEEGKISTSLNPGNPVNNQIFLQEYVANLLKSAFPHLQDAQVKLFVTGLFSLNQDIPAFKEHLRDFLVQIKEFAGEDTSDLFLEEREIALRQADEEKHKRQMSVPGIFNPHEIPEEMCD",
  "test": "pull-down",
  "data": [
    {"binder": "B1", "values": [
      {"measurement": "binding result", "result": "binds"}
    ]}
  ]
}
